Data taken from the supplement of paper PMC10724198.
± gives the standard deviation of the averaged measurements.

What follows are sequences tested on Saccharomyces cerevisiae (assay: protein stability index of tFT-peptide fusion (C-terminal peptide) (PSI (0-1 scale)); higher = more stable (slower turnover)). Details: genetic background: wild type; temperature: 30 C.
Experimental: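 Multiplexed protein stability (MPS) profiling in S. cerevisiae. Random 12-aa peptides (tFT-X12 library) are fused to the C-terminus of a sfGFP-mCherry tandem fluorescent timer, after mCherry and a GGGS linker. Cells are FACS-sorted into 8 mCherry/sfGFP bins and deep-sequenced. The protein stability index (PSI) is the read-weighted bin average, scaled from 0 (unstable) to 1 (stable). Only peptides with >10 reads are reported; cells were grown at 30 °C in SC-His with glucose.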
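Further: PSI is a weighted mean of sequencing reads over stability bins, variants kept only with over 10 reads, mCherry proximal and sfGFP distal, peptide attached via GGGS linker.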

Sequence	protein stability index
HLVYRRGLEVTF	0.615 ± 0.061
HMLRLIDFQSIV	0.685 ± 0.042
HPAPGSPPAAHL	0.734 ± 0.073
HPASPPTPPPLP	0.663 ± 0.014
HPFARSLRSQIT	0.734 ± 0.043
HPGVPGSPFLSC	0.714 ± 0.041
HPHAIDPKIESI	0.693 ± 0.035
HPMVFRLAAPRL	0.779 ± 0.18
HPPHFPTPFFSP	0.702 ± 0.036
HPPLRPPLGSRF	0.868 ± 0.045
HPPLTPLRANLP	0.74 ± 0.039
HPPRVLHGVPSG	0.629 ± 0.075
HPPSSLLSPPSP	0.702 ± 0.042
HPRSAYSLAASL	0.6633 ± 0.00083
HPSAALLSSCYK	0.677 ± 0.047
HPSPFTPPTNPY	0.733 ± 0.06
HPSPPAPAPLYP	0.667 ± 0.11
HPSRPPRASPPS	0.693 ± 0.03
HPVSVKPSESSR	0.668 ± 0.073
HQRGGPLPSSRR	0.739 ± 0.12
HQSISLSGAMLT	0.65 ± 0.0088
HQVPSPPPPGPL	0.707 ± 0.2
HQYSRHASIRTL	0.623 ± 0.06
HRCRVGGSRFEK	0.671 ± 0.036
HRLGNRGGRTLG	0.6512 ± 0.0057

Sequence	protein stability index
HRPPATFPVAHP	0.735 ± 0.042
HRPPATPADPCS	0.684 ± 0.019
HRPSPSPSPPLP	0.752 ± 0.056
HRPTRLIKKNLA	0.732 ± 0.033
HRRMGVGGCLEE	0.682 ± 0.046
HRVPRLRGQNPP	0.635 ± 0.0073
HRVVGVTLSVPS	0.71 ± 0.071
HSALLRSASLSF	0.705 ± 0.022
HSAPDLPPLPRV	0.711 ± 0.02
HSCSRPLTPPPF	0.72 ± 0.028
HSGGRVYSYACI	0.6851 ± 0.0017
HSIPWTRTRPGC	0.687 ± 0.016
HSLLPSYPFLSP	0.715 ± 0.076
HSPHLLSFFSPM	0.71 ± 0.076
HSPSSLPRLRPQ	0.621 ± 0.044
HSRPPPSPPDPA	0.603 ± 0.033
HSRTLTQKKTNN	0.715 ± 0.038
HSSHPRPHRTLI	0.661 ± 0.012
HSWSLLFSPSFP	0.658 ± 0.082
HTAYPPPHRTPP	0.629 ± 0.11
HTEYQGAGIPDE	0.752 ± 0.037
HTFSRLHSLPIR	0.693 ± 0.0082
HTNKNTTIQNKK	0.702 ± 0.11
HTRPTALLPLSR	0.701 ± 0.014
HTSKFKKQRKKR	0.7975 ± 0.0022

Sequence	protein stability index
HTWALERVCSLD	0.687 ± 0.066
HTYQAAFRSHAI	0.6544 ± 0.00072
HVKLLSSNGPLV	0.671 ± 0.031
HVLRVWKMCVLE	0.586 ± 0.033
HVTFPLRRTFRR	0.697 ± 0.013
HWRRGGRRGGDR	0.703 ± 0.1
HYPGSGAVEQHE	0.599 ± 0.016
HYSPLPSLPPLP	0.684 ± 0.077
IADRLAAIPMRY	0.669 ± 0.011
IARTGLGIIIKI	0.663 ± 0.054
IASSRPHSNQRE	0.692 ± 0.021
ICRGLTVPGVAI	0.612 ± 0.0095
ICWSTALDASFG	0.725 ± 0.024
IDLLTRKVDLFN	0.66 ± 0.055
IDLTLLRHPAYL	0.732 ± 0.05
IDSWWLPSDLKV	0.835 ± 0.017
IDVLTGTDAGPT	0.6278 ± 0.004
IECACVPLVAGG	0.656 ± 0.024
IECLRVVRSRCG	0.6724 ± 0.0023
IEKKNKTKKKRI	0.748 ± 0.13
IERGLEGHLGHC	0.668 ± 0.035
IESRGCSMQKRL	0.7489 ± 0.0039
IESVGRTTRQGE	0.748 ± 0.11
IFRERWGCFEAI	0.763 ± 0.13
IFRLFAFHENRG	0.679 ± 0.051

Sequence	protein stability index
IFSIRCFHSDFV	0.6486 ± 0.0028
IFVCRCFGFFGG	0.681 ± 0.04
IGAHTRRRVNGA	0.675 ± 0.096
IGCCSGYGGERG	0.691 ± 0.018
IGGIIFICTSNK	0.555 ± 0.015
IGGVSHEMKAKR	0.619 ± 0.013
IGLISTQYYWSL	0.621 ± 0.043
IGPRGPFHLTRI	0.675 ± 0.037
IGSEGGKNGRRK	0.616 ± 0.044
IGVGVGIDGLPW	0.693 ± 0.093
IHCFSVDLLVAR	0.542 ± 0.018
IHLTRGGNGHMD	0.6 ± 0.04
IHPKREPRDNNI	0.679 ± 0.015
IHVKKNQACSLF	0.646 ± 0.024
IIDKQENNLKSE	0.7513 ± 0.0011
IIKPPDIQQSRQ	0.739 ± 0.026
IIKRKKLMEKRT	0.663 ± 0.013
IINKRKKKKDKG	0.644 ± 0.019
IISAIAPFIRWD	0.69 ± 0.03
IKGHLYDFPPGT	0.792 ± 0.1
IKHKSKKNNCKK	0.744 ± 0.052
IKIIKNDQKRIK	0.709 ± 0.061
IKKITKTKPNHN	0.673 ± 0.053
